Experimental data as given in US20160194399A1 (CYTOMX THERAPEUTICS, published 2016).

Legend:
[1] = biological target: T1, SP34-binding peptide 15865; test: flow cytometry on peptide-displaying E. coli, 1 nM SP34-dylight-488 with 100 nM isotype control, normalised to peptide expression (yPet-Mona)
T1 peptide: MMYCGGNEVLCGPRV

[2] = biological target: T2, SP34-binding peptide 14995; test: as above
T2 peptide: YSLWGCEWGCDRGLY

[3] = biological target: T3, SP34-binding peptide 15003; test: as above
T3 peptide: GYRWGCEWNCGGITT

[4] = biological target: T4, SP34-binding peptide 15263; test: as above
T4 peptide: WYSGGCEAFCGILSS

[5] = biological target: T5, SP34-binding peptide 15286; test: as above
T5 peptide: GYSGGCEFRCYQLYS

[6] = biological target: T6, SP34-binding peptide 15860; test: as above
T6 peptide: VYYCGGNESLCGERR

[7] = biological target: T7, SP34-binding peptide 15864; test: as above
T7 peptide: FMCQQRMWGNEFCHQ

[8] = biological target: T1, SP34-binding peptide 15865; test: flow cytometry on peptide-displaying E. coli, 10 nM SP34-dylight-488 with 100 nM isotype control, normalised to peptide expression (yPet-Mona)
[9] = biological target: T2, SP34-binding peptide 14995; test: as above
[10] = biological target: T3, SP34-binding peptide 15003; test: as above
[11] = biological target: T4, SP34-binding peptide 15263; test: as above
[12] = biological target: T5, SP34-binding peptide 15286; test: as above
[13] = biological target: T6, SP34-binding peptide 15860; test: as above
[14] = biological target: T7, SP34-binding peptide 15864; test: as above
[15] = biological target: T1, SP34-binding peptide 15865; test: flow cytometry on peptide-displaying E. coli, 0.1 nM SP34-dylight-488 with 100 nM isotype control, normalised to peptide expression (yPet-Mona)
[16] = biological target: T2, SP34-binding peptide 14995; test: as above
[17] = biological target: T3, SP34-binding peptide 15003; test: as above
[18] = biological target: T4, SP34-binding peptide 15263; test: as above
[19] = biological target: T5, SP34-binding peptide 15286; test: as above
[20] = biological target: T6, SP34-binding peptide 15860; test: as above
[21] = biological target: T7, SP34-binding peptide 15864; test: as above
[22] = biological target: T1, SP34-binding peptide 15865; test: flow cytometry on peptide-displaying E. coli, 100 nM SP34-dylight-488 with 100 nM isotype control, normalised to peptide expression (yPet-Mona)
[23] = biological target: T2, SP34-binding peptide 14995; test: as above
[24] = biological target: T3, SP34-binding peptide 15003; test: as above
[25] = biological target: T4, SP34-binding peptide 15263; test: as above
[26] = biological target: T5, SP34-binding peptide 15286; test: as above
[27] = biological target: T6, SP34-binding peptide 15860; test: as above
[28] = biological target: T7, SP34-binding peptide 15864; test: as above
[29] = biological target: T1, SP34-binding peptide 15865; test: flow cytometry on peptide-displaying E. coli, 1 nM SP34-dylight-488 with 100 nM free human CD3ε as competitor, normalised to peptide expression (yPet-Mona)
[30] = biological target: T2, SP34-binding peptide 14995; test: as above
[31] = biological target: T3, SP34-binding peptide 15003; test: as above
[32] = biological target: T4, SP34-binding peptide 15263; test: as above
[33] = biological target: T5, SP34-binding peptide 15286; test: as above
[34] = biological target: T6, SP34-binding peptide 15860; test: as above
[35] = biological target: T7, SP34-binding peptide 15864; test: as above

B1: Anti-CD3ε antibody SP34 (antibody, V domains shown)
VH: EVQLVESGGGLVQPKGSLKLSCAASGFTFNTYAMNWVRQAPGKGLEWVARIRSKYNNYATYYADSVKDRFTISRDDSQSILYLQMNNLKTEDTAMYYCVRHGNFGNSYVSWFAYWGQGTLVTVSA
VL: QAVVTQESALTTSPGETVTLTCRSSTGAVTTSNYANWVQEKPDHLFTGLIGGTNKRAPGVPARFSGSLIGDKAALTITGAQTEDEAIYFCALWYSNLWVFGGGTKLTVL
notes: Bought mouse monoclonal (BD Biosciences Cat# 556610); also called SP34 antibody
[1]
  expression normalized binding: 0.79
[2]
  expression normalized binding: 0.13
[3]
  expression normalized binding: 0.2
[4]
  expression normalized binding: 0.35
[5]
  expression normalized binding: 0.42
[6]
  expression normalized binding: 0.52
[7]
  expression normalized binding: 0.36
[8]
  expression normalized binding: 1.08
[9]
  expression normalized binding: 0.11
[10]
  expression normalized binding: 0.39
[11]
  expression normalized binding: 0.69
[12]
  expression normalized binding: 0.66
[13]
  expression normalized binding: 1.72
[14]
  expression normalized binding: 0.63
[15]
  expression normalized binding: 0.21
[16]
  expression normalized binding: 0.08
[17]
  expression normalized binding: 0.11
[18]
  expression normalized binding: 0.24
[19]
  expression normalized binding: 0.28
[20]
  expression normalized binding: 0.48
[21]
  expression normalized binding: 0.15
[22]
  expression normalized binding: 2.24
[23]
  expression normalized binding: 0.51
[24]
  expression normalized binding: 0.69
[25]
  expression normalized binding: 2.28
[26]
  expression normalized binding: 1.72
[27]
  expression normalized binding: 4.55
[28]
  expression normalized binding: 1.88
[29]
  expression normalized binding: 0.26
[30]
  expression normalized binding: 0.08
[31]
  expression normalized binding: 0.12
[32]
  expression normalized binding: 0.34
[33]
  expression normalized binding: 0.34
[34]
  expression normalized binding: 0.51
[35]
  expression normalized binding: 0.3
